From IntAct's records for PubMed 22266823

B1: Fanconi anemia core complex-associated protein 20 (Homo sapiens), Q6NZ36-1 (parent)
chain: MEAARRPRLGLSRRRPRPAGGPSGGRPWFLLGGDERERLWAELLRTVSPELILDHEVPSLPAFPGQEPRCGPEPTEVFTVGPKTFSWTPFPPDLWGPGRSYRLLHGAGGHLESPARSLPQRPAPDPCRAPRVEQQPSVEGAAALRSCPMCQKEFAPRLTQLDVDSHLAQCLAESTEDVTW
partner: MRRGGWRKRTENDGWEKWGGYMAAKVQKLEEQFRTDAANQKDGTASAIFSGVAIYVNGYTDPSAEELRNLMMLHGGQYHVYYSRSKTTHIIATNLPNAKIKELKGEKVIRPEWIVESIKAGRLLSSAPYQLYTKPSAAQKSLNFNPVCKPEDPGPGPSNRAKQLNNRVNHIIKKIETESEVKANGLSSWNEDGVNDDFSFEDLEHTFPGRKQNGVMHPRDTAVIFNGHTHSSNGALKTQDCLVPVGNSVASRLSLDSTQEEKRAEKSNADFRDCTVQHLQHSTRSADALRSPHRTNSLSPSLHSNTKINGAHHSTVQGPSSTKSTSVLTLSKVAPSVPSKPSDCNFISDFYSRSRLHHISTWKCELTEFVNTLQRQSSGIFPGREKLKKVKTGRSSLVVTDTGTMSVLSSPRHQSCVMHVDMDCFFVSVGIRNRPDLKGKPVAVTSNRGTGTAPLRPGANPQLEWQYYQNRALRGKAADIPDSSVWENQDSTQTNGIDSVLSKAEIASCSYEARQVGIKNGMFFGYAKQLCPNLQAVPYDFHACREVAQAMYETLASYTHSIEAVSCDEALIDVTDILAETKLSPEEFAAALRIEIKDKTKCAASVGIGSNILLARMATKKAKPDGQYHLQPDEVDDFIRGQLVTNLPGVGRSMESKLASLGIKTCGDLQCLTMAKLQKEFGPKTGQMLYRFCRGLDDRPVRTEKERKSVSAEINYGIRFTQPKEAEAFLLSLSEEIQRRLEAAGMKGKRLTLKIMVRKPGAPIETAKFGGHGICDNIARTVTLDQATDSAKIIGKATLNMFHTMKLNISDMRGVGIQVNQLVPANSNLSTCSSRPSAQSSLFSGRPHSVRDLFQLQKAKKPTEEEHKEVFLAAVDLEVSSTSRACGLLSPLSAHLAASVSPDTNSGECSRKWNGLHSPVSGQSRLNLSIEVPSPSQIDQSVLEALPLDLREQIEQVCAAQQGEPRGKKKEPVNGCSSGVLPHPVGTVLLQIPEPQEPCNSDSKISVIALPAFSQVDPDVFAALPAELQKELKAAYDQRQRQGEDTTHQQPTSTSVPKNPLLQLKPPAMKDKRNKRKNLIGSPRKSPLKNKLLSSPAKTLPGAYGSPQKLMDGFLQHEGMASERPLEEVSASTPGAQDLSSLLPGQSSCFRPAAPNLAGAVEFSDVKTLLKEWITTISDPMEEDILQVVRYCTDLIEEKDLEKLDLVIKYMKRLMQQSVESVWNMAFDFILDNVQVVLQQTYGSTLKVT

Variants of: B1
Conditions: with rev1_mouse Rev1, Q920Q2

| Variant | effect of a mutation on the interaction |
| --- | --- |
| C147A;C150A | disrupting interaction strength |
